# Reference: the Immune Epitope Database (IEDB)
# Experiments:
# HLA-B*08:03 = experiment: IEDB peptide-MHC binding, purified MHC/direct/fluorescence; filed as Kd, often an IC50 or EC50 that approximates it; ≥ and ≤ were set here for values at or beyond the usual limits of such assays; details: source organism: Bacillus cereus H3081.97
# HLA-A*01:01 = experiment: IEDB peptide-MHC binding, purified MHC/competitive/fluorescence; filed as Kd, often an IC50 or EC50 that approximates it; ≥ and ≤ were set here for values at or beyond the usual limits of such assays
# HLA-A*11:01 = experiment: as above
# HLA-A*26:01 = experiment: as above
# HLA-A*30:01 = experiment: as above
# HLA-B*08:02 = experiment: as above; details: source organism: Human immunodeficiency virus 1
# HLA-B*15:01 = experiment: as above
# HLA-B*15:17 = experiment: as above
# HLA-B*39:01 = experiment: as above; details: source organism: Human immunodeficiency virus 1
# HLA-B*57:01 = experiment: as above
# HLA-A*02:01 = experiment: as above; details: source organism: Salmonella enterica subsp. enterica serovar Typhi
# HLA-A*02:03 = experiment: as above; details: source organism: Salmonella enterica subsp. enterica serovar Typhi
# HLA-A*02:06 = experiment: as above; details: source organism: Salmonella enterica subsp. enterica serovar Typhi
# HLA-A*03:01 = experiment: as above; details: source organism: Salmonella enterica subsp. enterica serovar Typhi
# HLA-A*31:01 = experiment: as above; details: source organism: Salmonella enterica subsp. enterica serovar Typhi
# HLA-A*69:01 = experiment: as above; details: source organism: Salmonella enterica subsp. enterica serovar Typhi
# HLA-B*08:01 = experiment: as above; details: source organism: Salmonella enterica subsp. enterica serovar Typhi
# HLA-B*15:09 = experiment: as above; details: source organism: Salmonella enterica subsp. enterica serovar Typhi
# HLA-B*27:05 = experiment: as above; details: source organism: Salmonella enterica subsp. enterica serovar Typhi
# HLA-B*38:01 = experiment: as above; details: source organism: Salmonella enterica subsp. enterica serovar Typhi
# HLA-B*40:01 = experiment: as above; details: source organism: Salmonella enterica subsp. enterica serovar Typhi
# HLA-B*48:01 = experiment: as above; details: source organism: Salmonella enterica subsp. enterica serovar Typhi
# HLA-B*58:01 = experiment: as above; details: source organism: Salmonella enterica subsp. enterica serovar Typhi
# [1] = source organism: Human immunodeficiency virus 1
# [2] = source organism: Salmonella enterica subsp. enterica serovar Typhi
sequence,measurement,setting,value
FPKVRAQEL,Kd,HLA-B*08:03,209 nM
GTEEIRSLY,Kd,HLA-A*01:01; [1],12 nM
same,Kd,HLA-A*11:01; [1],≥ 20000 nM
same,Kd,HLA-A*26:01; [1],429 nM
same,Kd,HLA-A*30:01; [1],13000 nM
same,Kd,HLA-B*08:02,≥ 20000 nM
same,Kd,HLA-B*15:01; [1],≥ 20000 nM
same,Kd,HLA-B*15:17; [1],60.5 nM
same,Kd,HLA-B*39:01,≥ 20000 nM
same,Kd,HLA-B*57:01; [1],≥ 20000 nM
MSAIVSCRY,Kd,HLA-A*01:01; [2],4 nM
same,Kd,HLA-A*02:01,≥ 20000 nM
same,Kd,HLA-A*02:03,≥ 20000 nM
same,Kd,HLA-A*02:06,≥ 20000 nM
same,Kd,HLA-A*03:01,882 nM
same,Kd,HLA-A*11:01; [2],≥ 20000 nM
same,Kd,HLA-A*26:01; [2],235 nM
same,Kd,HLA-A*30:01; [2],1400 nM
same,Kd,HLA-A*31:01,≥ 20000 nM
same,Kd,HLA-A*69:01,≥ 20000 nM
same,Kd,HLA-B*08:01,≥ 20000 nM
same,Kd,HLA-B*15:01; [2],51.2 nM
same,Kd,HLA-B*15:09,≥ 20000 nM
same,Kd,HLA-B*15:17; [2],2.4 nM
same,Kd,HLA-B*27:05,≥ 20000 nM
same,Kd,HLA-B*38:01,≥ 20000 nM
same,Kd,HLA-B*40:01,≥ 20000 nM
same,Kd,HLA-B*48:01,≥ 20000 nM
same,Kd,HLA-B*57:01; [2],237 nM
same,Kd,HLA-B*58:01,27.5 nM
